According to patent publication US6949624:

Experiments:
[1] = biological target: human nuclear receptor co-repressor (HuN-CoR), 2,440 amino-acid polypeptide (human) (UniProt O75376); experiment: cell-based or functional assay
[2] = biological target: AML1/ETO chimeric fusion protein (UniProt Q01196); experiment: cell-based or functional assay
Sequence of UniProt Q01196 (Q01196 other isoform, or with tags, fused parts or gaps mutant limits assumed): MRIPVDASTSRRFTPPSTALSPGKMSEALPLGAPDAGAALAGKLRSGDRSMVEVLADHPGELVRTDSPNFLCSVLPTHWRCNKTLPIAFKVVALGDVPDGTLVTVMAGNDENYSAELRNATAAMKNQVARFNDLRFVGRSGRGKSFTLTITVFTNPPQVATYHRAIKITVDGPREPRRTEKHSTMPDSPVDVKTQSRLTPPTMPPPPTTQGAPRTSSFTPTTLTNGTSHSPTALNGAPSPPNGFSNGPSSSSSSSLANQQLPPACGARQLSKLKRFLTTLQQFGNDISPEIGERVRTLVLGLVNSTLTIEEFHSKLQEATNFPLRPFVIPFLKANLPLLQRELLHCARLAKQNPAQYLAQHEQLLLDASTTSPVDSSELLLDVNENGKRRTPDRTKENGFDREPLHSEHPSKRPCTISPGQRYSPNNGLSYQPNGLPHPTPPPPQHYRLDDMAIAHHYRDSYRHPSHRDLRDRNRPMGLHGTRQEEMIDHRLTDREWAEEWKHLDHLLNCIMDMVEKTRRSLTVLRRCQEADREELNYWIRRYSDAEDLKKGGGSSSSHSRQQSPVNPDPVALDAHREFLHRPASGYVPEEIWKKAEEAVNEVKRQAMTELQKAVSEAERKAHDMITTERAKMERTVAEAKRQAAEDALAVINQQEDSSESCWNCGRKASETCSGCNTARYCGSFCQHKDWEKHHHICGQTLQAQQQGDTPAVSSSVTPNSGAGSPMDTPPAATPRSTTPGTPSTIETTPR

Sequence of UniProt O75376 (O75376 other isoform, or with tags, fused parts or gaps limits assumed): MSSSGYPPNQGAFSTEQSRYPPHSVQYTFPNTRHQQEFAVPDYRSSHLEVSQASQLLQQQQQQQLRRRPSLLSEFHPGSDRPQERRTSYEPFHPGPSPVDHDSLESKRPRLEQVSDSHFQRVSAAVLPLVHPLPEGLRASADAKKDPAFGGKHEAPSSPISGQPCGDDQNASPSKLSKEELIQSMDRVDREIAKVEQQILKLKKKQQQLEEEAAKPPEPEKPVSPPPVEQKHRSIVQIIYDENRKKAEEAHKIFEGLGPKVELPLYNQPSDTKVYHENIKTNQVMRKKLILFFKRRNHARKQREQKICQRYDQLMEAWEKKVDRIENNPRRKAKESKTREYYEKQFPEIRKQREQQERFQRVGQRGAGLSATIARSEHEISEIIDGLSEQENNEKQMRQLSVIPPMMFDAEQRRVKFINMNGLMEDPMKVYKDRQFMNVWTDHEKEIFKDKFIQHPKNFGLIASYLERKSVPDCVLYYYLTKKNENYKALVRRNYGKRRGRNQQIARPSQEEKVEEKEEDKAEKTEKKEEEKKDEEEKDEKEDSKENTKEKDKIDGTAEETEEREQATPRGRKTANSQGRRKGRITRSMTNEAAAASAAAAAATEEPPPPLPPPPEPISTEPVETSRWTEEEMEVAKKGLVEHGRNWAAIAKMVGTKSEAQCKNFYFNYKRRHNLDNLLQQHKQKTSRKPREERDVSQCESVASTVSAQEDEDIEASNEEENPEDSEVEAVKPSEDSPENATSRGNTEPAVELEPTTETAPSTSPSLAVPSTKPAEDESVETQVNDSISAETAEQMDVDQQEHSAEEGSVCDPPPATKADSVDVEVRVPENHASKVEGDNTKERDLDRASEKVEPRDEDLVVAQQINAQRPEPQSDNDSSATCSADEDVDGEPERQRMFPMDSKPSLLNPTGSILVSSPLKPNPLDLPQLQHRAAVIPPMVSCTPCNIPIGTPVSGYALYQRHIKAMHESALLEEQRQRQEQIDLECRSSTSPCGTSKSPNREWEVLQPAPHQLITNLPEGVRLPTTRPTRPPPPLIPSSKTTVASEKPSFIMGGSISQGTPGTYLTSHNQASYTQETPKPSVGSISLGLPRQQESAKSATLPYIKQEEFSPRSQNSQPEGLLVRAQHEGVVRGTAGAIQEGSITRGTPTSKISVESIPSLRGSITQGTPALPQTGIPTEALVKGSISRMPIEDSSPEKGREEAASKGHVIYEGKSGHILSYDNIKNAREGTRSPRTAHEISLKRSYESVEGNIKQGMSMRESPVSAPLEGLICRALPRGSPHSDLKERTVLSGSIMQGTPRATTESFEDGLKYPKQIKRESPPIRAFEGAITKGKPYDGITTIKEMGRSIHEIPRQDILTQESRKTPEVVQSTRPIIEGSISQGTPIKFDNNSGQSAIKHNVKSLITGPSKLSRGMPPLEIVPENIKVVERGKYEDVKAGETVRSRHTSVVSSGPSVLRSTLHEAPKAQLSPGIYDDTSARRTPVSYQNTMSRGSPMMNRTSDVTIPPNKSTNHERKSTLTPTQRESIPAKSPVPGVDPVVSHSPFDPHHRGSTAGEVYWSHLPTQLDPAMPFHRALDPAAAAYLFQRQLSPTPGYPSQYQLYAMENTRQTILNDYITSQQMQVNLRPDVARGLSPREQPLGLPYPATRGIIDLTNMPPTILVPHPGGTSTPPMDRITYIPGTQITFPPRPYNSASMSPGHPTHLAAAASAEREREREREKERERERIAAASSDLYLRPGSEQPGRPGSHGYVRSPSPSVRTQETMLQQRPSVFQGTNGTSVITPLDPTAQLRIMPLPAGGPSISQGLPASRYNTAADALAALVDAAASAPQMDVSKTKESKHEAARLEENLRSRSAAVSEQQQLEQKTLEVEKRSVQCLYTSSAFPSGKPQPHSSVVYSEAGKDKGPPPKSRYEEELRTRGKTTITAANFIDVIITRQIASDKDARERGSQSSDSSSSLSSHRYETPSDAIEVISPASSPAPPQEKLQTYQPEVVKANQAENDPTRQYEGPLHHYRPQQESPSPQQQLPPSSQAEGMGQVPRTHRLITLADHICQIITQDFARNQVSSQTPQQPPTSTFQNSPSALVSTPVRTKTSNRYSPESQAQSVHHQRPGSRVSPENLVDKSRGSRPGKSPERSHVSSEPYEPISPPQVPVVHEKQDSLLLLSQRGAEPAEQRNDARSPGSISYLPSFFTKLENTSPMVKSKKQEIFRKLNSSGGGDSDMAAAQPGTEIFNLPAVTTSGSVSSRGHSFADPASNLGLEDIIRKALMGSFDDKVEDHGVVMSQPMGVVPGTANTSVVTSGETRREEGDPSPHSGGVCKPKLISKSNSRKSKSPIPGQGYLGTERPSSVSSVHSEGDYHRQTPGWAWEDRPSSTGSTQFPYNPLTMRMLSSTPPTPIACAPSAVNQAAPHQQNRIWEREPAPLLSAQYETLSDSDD

With “zinc-finger domains of ETO (ETOZn) fused with enhanced green fluorescent protein (from UniProt Q06455 510-556)” the transduced Kasumi-1 cells positive for CD13 expression (flow cytometry) [1] was 89% and the transduced Kasumi-1 cells positive for annexin staining (flow cytometry) [1] was 97%.

“ETO-interacting domain of N-CoR (NCoREID) fused with enhanced green fluorescent protein” gave a transduced Kasumi-1 cells positive for CD13 expression (flow cytometry) [2] of 87% and a transduced Kasumi-1 cells positive for annexin staining (flow cytometry) [2] of 97%.
